Article PMC7774954, “Interactomic affinity profiling by holdup assay: Acetylation and distal residues impact the PDZome-binding specificity of PTEN phosphatase” (PLoS ONE, 2020)

Columns and labels:
PTEN_KR (human) = PTEN_KR (human) (UniProt P60484); assay: holdup assay; biotinylated PBM peptide saturating streptavidin resin (biotin resin as reference); tag-PDZ at 4 uM in crude E. coli lysate, 15 min, filtration, free tag-PDZ by capillary electrophoresis; singlicate; BI cut-off 0.20; BI converted into KD with the peptide concentration back-calculated from FP
PTEN_11 (human) = PTEN_11 (human) (UniProt P60484); assay: as above
PTEN_Ac (human) = PTEN_Ac (human) (UniProt P60484); assay: as above
PTEN_13 (human) = PTEN_13 (human) (UniProt P60484); assay: as above
[1] = target: fRSK1, fluorescein-labelled RSK1 PBM peptide; assay: fluorescence polarisation; direct: N-terminally fluorescein-labelled PBM peptide (tracer) with increasing amounts of MBP-PDZ; 384-well plates; triplicate; direct binding model (ProFit)
SNX27-1 (human) = assay: fluorescence polarisation; competitive: 50 nM fluorescent tracer peptide pre-formed with the PDZ domain (>60-80% complex), unlabeled peptide added at 8 concentrations; 20 mM HEPES pH 7.5, 150 mM NaCl, 0.5 mM TCEP, 0.01% Tween 20; triplicate; apparent
[2] = target: HTRA1-1, PDZ domain of HTRA1 (human) (UniProt Q92743); assay: fluorescence polarisation; competitive: pre-formed complex of PDZ domain (>60-80% complex) and 50 nM fluorescent tracer peptide, increasing amount of unlabeled PTEN peptide (8 concentrations); 20 mM HEPES pH 7.5, 150 mM NaCl, 0.5 mM TCEP, 0.01% Tween 20; triplicate; competitive binding model (ProFit); apparent
[3] = target: MAST2-1, PDZ domain of MAST2 (human) (UniProt Q6P0Q8); assay: as above
[4] = target: GOPC-1, PDZ domain of GOPC (human) (UniProt Q9HD26); assay: as above
[5] = target: SNTB1-1, PDZ domain of SNTB1 (human) (UniProt Q13884); assay: as above
[6] = target: SNTA1-1, PDZ domain of SNTA1 (human) (UniProt Q13424); assay: as above
[7] = target: MAST1-1, PDZ domain of MAST1 (human) (UniProt Q9Y2H9); assay: as above
[8] = target: SNX27-1, PDZ domain of SNX27 (human) (UniProt Q96L92); assay: as above
[9] = target: SNTG2-1, PDZ domain of SNTG2 (human) (UniProt Q9NY99); assay: as above
[10] = target: ARHGEF12-1, PDZ domain of ARHGEF12 (human) (UniProt Q9NZN5); assay: as above
[11] = target: fpRSK1, fluorescein-labelled phosphorylated RSK1 PBM peptide; assay: fluorescence polarisation; direct: N-terminally fluorescein-labelled PBM peptide (tracer) with increasing amounts of MBP-PDZ; 384-well plates; triplicate; direct binding model (ProFit)
[12] = target: f16E6, fluorescein-labelled HPV16 E6 PBM peptide (HPV16); assay: as above
[13] = target: GRID2IP-2, second PDZ domain of GRID2IP (human) (UniProt A4D2P6); assay: fluorescence polarisation; competitive: pre-formed complex of PDZ domain (>60-80% complex) and 50 nM fluorescent tracer peptide, increasing amount of unlabeled PTEN peptide (8 concentrations); 20 mM HEPES pH 7.5, 150 mM NaCl, 0.5 mM TCEP, 0.01% Tween 20; triplicate; competitive binding model (ProFit); apparent
MAST2-1 (human) = assay: fluorescence polarisation; competitive: 50 nM fluorescent tracer peptide pre-formed with the PDZ domain (>60-80% complex), unlabeled peptide added at 8 concentrations; 20 mM HEPES pH 7.5, 150 mM NaCl, 0.5 mM TCEP, 0.01% Tween 20; triplicate; apparent
MAST1-1 (human) = assay: as above

Chain of MAST1-1, PDZ domain of MAST1 (human) (Q9Y2H9 whole entry, the tested form may be a part): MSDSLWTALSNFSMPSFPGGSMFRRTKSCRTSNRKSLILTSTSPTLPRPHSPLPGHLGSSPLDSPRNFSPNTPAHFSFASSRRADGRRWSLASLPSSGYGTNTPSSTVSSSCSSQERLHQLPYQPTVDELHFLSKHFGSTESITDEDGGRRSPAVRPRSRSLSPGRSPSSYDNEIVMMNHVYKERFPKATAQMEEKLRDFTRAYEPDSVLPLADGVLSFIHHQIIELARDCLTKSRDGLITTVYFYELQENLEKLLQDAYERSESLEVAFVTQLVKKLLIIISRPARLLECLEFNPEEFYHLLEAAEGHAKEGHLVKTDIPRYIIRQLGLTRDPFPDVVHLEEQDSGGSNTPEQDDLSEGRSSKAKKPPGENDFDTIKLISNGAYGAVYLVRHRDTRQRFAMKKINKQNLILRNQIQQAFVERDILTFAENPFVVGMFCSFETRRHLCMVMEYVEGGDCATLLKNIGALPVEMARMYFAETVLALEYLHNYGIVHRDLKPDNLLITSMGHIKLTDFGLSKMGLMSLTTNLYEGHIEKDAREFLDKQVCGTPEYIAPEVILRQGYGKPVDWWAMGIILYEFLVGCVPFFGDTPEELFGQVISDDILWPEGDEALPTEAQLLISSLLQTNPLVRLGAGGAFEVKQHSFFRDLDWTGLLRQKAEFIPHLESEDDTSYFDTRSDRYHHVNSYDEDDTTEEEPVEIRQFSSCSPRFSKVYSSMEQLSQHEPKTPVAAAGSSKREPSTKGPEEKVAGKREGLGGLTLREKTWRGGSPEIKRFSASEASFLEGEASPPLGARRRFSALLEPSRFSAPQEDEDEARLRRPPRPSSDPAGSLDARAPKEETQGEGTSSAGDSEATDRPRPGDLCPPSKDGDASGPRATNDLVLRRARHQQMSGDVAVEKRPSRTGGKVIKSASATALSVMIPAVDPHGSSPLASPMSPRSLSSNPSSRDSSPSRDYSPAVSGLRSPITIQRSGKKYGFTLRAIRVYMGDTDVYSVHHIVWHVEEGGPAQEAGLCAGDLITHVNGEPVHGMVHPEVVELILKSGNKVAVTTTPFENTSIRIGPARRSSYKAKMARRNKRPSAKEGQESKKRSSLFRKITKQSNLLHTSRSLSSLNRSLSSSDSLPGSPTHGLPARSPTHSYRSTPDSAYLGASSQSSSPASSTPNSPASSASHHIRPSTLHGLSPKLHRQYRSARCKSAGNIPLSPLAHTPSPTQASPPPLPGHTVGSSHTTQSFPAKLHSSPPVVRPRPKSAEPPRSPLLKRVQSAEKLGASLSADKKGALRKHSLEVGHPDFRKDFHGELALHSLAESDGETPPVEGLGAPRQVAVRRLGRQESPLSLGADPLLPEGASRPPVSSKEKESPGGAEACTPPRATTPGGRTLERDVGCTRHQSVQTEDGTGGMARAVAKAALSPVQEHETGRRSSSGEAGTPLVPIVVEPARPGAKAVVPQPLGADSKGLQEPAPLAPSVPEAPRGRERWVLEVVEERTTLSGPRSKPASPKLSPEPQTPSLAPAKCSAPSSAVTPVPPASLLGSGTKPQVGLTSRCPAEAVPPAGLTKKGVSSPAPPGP
Chain of SNTB1-1, PDZ domain of SNTB1 (human) (Q13884 whole entry, the tested form may be a part): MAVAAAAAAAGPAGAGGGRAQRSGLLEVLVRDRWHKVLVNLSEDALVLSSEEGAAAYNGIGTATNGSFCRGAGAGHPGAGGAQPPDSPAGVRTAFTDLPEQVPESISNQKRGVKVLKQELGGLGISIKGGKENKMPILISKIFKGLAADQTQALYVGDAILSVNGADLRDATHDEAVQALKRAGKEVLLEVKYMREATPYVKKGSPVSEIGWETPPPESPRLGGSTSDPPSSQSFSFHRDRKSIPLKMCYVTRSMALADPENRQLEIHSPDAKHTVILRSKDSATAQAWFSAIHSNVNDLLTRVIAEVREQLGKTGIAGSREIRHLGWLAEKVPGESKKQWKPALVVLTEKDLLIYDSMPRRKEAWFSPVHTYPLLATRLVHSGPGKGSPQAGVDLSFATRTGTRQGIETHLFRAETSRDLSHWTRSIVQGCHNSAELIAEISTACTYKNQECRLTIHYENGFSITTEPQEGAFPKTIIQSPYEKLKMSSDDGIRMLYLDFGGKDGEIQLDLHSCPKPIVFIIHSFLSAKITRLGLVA
Chain of ARHGEF12-1, PDZ domain of ARHGEF12 (human) (Q9NZN5 whole entry, the tested form may be a part): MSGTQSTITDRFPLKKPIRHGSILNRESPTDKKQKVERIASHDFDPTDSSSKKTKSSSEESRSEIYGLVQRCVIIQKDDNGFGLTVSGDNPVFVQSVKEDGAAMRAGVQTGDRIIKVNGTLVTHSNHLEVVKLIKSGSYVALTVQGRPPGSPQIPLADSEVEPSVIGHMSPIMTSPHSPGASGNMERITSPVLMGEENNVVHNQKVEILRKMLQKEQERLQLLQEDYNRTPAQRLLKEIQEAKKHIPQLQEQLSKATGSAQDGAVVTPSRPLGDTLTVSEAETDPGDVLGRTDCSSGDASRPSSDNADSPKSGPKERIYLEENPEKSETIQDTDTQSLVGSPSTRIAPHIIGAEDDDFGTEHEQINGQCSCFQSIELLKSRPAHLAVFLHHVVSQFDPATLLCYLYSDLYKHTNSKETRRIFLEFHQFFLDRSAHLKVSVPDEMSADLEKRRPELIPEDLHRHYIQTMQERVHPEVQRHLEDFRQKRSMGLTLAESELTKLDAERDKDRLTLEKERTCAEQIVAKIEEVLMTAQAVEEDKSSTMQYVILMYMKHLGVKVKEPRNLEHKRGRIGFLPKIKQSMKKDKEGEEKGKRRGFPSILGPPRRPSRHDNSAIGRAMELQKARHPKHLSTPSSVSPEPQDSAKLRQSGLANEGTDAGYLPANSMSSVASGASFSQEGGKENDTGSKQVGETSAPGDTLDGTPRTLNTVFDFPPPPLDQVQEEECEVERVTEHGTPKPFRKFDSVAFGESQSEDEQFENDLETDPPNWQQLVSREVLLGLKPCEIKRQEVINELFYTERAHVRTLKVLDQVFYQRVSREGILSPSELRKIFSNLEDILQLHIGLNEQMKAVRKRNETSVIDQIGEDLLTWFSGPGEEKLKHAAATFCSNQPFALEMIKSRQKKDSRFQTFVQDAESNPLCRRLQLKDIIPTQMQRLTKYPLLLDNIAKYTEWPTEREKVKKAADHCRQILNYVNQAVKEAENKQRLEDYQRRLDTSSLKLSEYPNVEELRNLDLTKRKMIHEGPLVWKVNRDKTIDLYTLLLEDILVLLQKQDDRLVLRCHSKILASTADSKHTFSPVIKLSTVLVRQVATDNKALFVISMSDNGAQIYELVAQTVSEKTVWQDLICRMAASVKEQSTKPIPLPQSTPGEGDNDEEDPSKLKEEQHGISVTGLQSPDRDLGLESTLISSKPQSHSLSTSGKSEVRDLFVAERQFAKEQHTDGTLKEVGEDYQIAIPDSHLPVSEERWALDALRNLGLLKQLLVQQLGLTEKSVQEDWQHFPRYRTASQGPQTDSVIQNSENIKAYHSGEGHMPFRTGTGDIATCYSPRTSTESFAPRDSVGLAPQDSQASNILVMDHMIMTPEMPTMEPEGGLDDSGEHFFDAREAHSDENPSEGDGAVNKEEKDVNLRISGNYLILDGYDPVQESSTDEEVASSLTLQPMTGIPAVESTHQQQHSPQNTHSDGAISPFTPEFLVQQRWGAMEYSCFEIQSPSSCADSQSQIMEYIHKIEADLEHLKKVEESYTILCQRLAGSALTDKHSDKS
Chain of HTRA1-1, PDZ domain of HTRA1 (human) (Q92743 23-480): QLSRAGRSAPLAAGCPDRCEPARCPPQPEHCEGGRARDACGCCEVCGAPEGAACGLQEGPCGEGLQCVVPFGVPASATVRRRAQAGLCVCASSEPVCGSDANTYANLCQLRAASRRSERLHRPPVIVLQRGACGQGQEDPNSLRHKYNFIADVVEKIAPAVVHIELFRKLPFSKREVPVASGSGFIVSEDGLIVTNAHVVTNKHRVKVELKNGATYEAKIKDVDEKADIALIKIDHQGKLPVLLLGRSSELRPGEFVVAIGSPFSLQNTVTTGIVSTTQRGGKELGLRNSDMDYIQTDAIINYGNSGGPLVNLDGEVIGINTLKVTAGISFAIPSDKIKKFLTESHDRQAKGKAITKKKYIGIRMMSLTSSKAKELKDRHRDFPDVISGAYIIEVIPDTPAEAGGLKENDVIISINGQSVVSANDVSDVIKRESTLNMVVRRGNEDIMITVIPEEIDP
Chain of SNTA1-1, PDZ domain of SNTA1 (human) (Q13424 whole entry, the tested form may be a part): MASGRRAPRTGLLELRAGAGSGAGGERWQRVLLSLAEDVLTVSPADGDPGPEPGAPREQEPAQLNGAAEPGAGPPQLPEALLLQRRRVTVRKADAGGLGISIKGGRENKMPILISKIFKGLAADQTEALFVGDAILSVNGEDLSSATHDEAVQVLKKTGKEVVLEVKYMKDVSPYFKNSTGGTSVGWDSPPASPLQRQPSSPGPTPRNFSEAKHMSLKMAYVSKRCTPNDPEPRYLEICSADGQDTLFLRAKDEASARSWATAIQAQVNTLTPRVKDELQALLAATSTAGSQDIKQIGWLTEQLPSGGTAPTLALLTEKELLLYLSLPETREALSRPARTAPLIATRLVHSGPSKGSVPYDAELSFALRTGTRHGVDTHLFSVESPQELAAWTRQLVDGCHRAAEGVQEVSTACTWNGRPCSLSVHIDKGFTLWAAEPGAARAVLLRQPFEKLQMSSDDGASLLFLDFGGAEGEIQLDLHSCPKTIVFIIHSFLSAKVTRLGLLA
Chain of GRID2IP-2, second PDZ domain of GRID2IP (human) (A4D2P6 279-356): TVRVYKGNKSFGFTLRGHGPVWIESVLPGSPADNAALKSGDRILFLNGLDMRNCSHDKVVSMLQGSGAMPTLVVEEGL

MAST3-1 (domain or fragment) was tested, and the Kd (PTEN_KR (human)) was 82 µM, the Kd (PTEN_11 (human)) was 241 µM and the Kd (PTEN_Ac (human)) was 85 µM.

Substance SNX27-1 (domain or fragment) has a Kd (PTEN_Ac (human)) of 4 µM and a Kd (PTEN_13 (human)) of 6 µM.

In the case of “ARHGEF12-1, PDZ domain of ARHGEF12 (from UniProt Q9NZN5 1-1544) (domain or fragment)”, the Kd [1] is reported as 3.96 µM.

“HTRA1-1, PDZ domain of HTRA1 (from UniProt Q92743 23-480) (domain or fragment)” showed a Kd [1] of 64.8 µM.

Work on “PTEN_KR (from UniProt P60484 393-403) (peptide)” yielded a Kd (SNX27-1 (human)) of 8 µM.

SNTB2-1 (domain or fragment) gave a Kd (PTEN_13 (human)) of 64 µM.

Substance “PTEN_Ac, 11-mer PTEN PDZ-binding motif peptide acetylated at K402” has a Kd [2] of 10.2 µM, a Kd [3] of 2.56 µM and a Kd [4] of 70.2 µM. For the same substance, the Kd [5] was 14.5 µM, the Kd [6] was 45.3 µM and the Kd [7] was 7.4 µM. For the same substance, the Kd [8] was 4.07 µM, the Kd [9] was 377 µM and the Kd [10] was 65.5 µM.

“SNTA1-1, PDZ domain of SNTA1 (from UniProt Q13424 1-505) (domain or fragment)” was tested, and the Kd [11] was 20.4 µM.

With “PTPN13-4 (from UniProt Q12923 1788-1868) (domain or fragment)” the Kd (PTEN_Ac (human)) was 10 µM.

In the case of “DLG1-2 (from UniProt Q12959 319-405) (domain or fragment)”, the Kd (PTEN_Ac (human)) is reported as 36 µM.

“PTEN_11, 11-mer wild-type PDZ-binding motif peptide of PTEN” gave a Kd [4] of 131 µM, a Kd [5] of 67 µM and a Kd [6] of 194 µM. For the same substance, the Kd [7] was 10.9 µM, the Kd [8] was 13.8 µM and the Kd [10] was 113 µM.

For “MAST1-1, PDZ domain of MAST1 (from UniProt Q9Y2H9 1-1570) (domain or fragment)”, the Kd [12] was 7.52 µM.

“PARD3-3 (from UniProt Q8TEW0 590-677) (domain or fragment)” showed a Kd (PTEN_11 (human)) of 160 µM.

“MAST2-1, PDZ domain of MAST2 (from UniProt Q6P0Q8 1-1798) (domain or fragment)” was tested, and the Kd [1] was 6.87 µM.

Substance “PTEN_13, 13-mer wild-type PDZ-binding motif peptide of PTEN” has a Kd [2] of 25.3 µM, a Kd [13] of 59.1 µM and a Kd [3] of 1.28 µM. It also gave a Kd [4] of 82.1 µM, a Kd [5] of 44.5 µM and a Kd [6] of 123 µM. The Kd [7] was 7.62 µM, the Kd [8] was 7.95 µM and the Kd [10] was 100 µM.

Work on “MAGI3-2 (from UniProt Q5TCQ9 410-492) (domain or fragment)” yielded a Kd (PTEN_Ac (human)) of 39 µM.

“SNTB1-1, PDZ domain of SNTB1 (from UniProt Q13884 1-538) (domain or fragment)” showed a Kd [11] of 3.98 µM.

MAST1-1 (domain or fragment) was tested, and the Kd (PTEN_KR (human)) was 32 µM, the Kd (PTEN_11 (human)) was 39 µM and the Kd (PTEN_Ac (human)) was 26 µM.

“PTEN_11 (from UniProt P60484 393-403) (peptide)” was tested, and the Kd (SNX27-1 (human)) was 14 µM.

“PTEN_KR, 11-mer PTEN PDZ-binding motif peptide with K402R” showed a Kd [2] of 36.2 µM, a Kd [3] of 2.39 µM and a Kd [4] of 47.4 µM. For the same substance, the Kd [5] was 24.4 µM, the Kd [6] was 65.1 µM and the Kd [7] was 9.11 µM. For the same substance, the Kd [8] was 8.32 µM, the Kd [9] was 141 µM and the Kd [10] was 114 µM.

“PTEN_13 (from UniProt P60484 391-403) (peptide)” was tested, and the Kd (MAST2-1 (human)) was 1 µM and the Kd (MAST1-1 (human)) was 8 µM.

“SNTG2-1, PDZ domain of SNTG2 (from UniProt Q9NY99 1-539) (domain or fragment)” was tested, and the Kd [11] was 21.9 µM.

“NHERF2-2 (from UniProt Q15599 150-230) (domain or fragment)” gave a Kd (PTEN_11 (human)) of 35 µM.

MAST2-1 (domain or fragment) gave a Kd (PTEN_KR (human)) of 7 µM, a Kd (PTEN_11 (human)) of 13 µM and a Kd (PTEN_Ac (human)) of 4 µM.

“PTPN13-2 (from UniProt Q12923 1368-1452) (domain or fragment)” showed a Kd (PTEN_11 (human)) of 148 µM.
